Tested on: Irr (Rhodobacter sphaeroides 2.4.1)
Assay: EMSA
Details: Mn2+ favored complex formation (1 mM MnCl2); Mn2+ in Kd assay not stated; EMSA: 20 mM TB pH 7.8, 5% glycerol, 1 mM DTT, 1 ug salmon sperm DNA, 0.1 mg/ml BSA, with or without 1 mM MnCl2, 15 ul, ~3 fmol probe, 30 min at 32 C; 6% PAGE …

Substance | Kd
ccpA upstream region | 0.9 µM
mbfA upstream region | 0.8 µM
